First the molecules themselves.
T1: Fc Receptor-like 5 (FcRL5), full length, overexpressed on 3T3 or Raji cells (human, UniProt Q96RD9 16-977)
T1 construct: also called 3T3-FcRL5
T1 sequence: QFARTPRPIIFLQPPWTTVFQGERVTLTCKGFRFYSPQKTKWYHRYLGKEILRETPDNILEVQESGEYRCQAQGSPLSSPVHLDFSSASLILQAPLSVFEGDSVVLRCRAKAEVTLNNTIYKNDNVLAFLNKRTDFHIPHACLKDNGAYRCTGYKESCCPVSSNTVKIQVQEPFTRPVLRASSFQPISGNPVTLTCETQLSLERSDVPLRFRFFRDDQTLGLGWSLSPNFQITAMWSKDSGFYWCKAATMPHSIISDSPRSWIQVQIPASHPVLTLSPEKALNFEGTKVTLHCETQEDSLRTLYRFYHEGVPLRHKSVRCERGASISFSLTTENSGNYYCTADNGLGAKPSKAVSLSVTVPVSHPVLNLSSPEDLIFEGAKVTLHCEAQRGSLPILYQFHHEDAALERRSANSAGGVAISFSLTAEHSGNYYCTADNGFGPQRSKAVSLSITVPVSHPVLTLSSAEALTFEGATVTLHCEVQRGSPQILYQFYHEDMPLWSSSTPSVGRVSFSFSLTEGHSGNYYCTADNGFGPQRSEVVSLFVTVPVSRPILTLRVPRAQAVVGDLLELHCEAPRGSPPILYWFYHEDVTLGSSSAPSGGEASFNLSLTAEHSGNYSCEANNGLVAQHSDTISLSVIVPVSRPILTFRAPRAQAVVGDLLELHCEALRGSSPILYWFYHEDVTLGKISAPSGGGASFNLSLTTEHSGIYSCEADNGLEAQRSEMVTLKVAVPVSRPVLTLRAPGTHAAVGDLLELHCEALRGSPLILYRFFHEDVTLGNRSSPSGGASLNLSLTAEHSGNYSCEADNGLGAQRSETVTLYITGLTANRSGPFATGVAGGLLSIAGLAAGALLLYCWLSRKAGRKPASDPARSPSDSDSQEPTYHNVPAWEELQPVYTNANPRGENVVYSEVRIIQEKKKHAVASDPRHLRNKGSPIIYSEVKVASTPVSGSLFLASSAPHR

T2: FcRL1, overexpressed on 3T3 cells (UniProt Q96LA6 17-429, limits assumed)
T2 construct: whole, on cells
T2 sequence (looked up): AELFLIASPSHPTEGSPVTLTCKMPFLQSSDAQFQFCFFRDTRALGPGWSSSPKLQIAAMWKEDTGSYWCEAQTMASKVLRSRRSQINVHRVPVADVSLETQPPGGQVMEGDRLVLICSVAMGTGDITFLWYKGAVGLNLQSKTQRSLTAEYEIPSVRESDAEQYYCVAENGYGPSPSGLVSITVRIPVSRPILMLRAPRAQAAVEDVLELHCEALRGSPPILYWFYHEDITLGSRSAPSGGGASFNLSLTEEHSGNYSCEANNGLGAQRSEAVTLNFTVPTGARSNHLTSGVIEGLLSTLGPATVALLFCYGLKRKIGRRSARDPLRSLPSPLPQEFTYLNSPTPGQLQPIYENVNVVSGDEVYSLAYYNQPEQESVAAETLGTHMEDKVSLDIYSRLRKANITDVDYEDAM

B1: ET200-105 (scFv)
scFv: SYVLTQPPSVSVSPGQTASITCSGDRLTNKYVSWYQQKPGQSPVLVIYEDAKRPSGIPARFSGSNSGNTATLTISGTQAMDESEYYCQAWDSSVVVFGGGTKLTVLGSRGGGGSGGGGSGGGGSLEMAEVQLVESGGGLVQPGRSLRLSCAASGFTFDDYAMHWVRQAPGKGLEWVSGISWNSGSIGYADSVKGRFTISRDNAKNSLYLQMNSLRDEDTALYYCAKDRGGGVIVKDAFDIWGQGTMVTVSSTSGQAGQHHHHHHGAYPYDVPDYAS
notes: screened as phage clone; entry is VL-linker-VH-His tag-HA tag
B2: ET200-107 (scFv)
scFv: QSVVTQPPSVSAAPGEKVTISCSGSNFNVGNNDVSWYQQLPGAAPKLLIYDNNKRPSGIPDRFSGSKSGTSATLDITGLHSDDEADYYCGTWDSSLNTGGVFGTGTKVTVLGSRGGGGSGGGGSGGGGSLEMAEVQLVQSGAEVKKPGASVKVSCKASGYTFTSYTISWVRQAPGQGLEWMGWISTYNGLTNYAQNLQGRVTMTTDTFTTTAYMELRSLRSDDTAVYYCVREGSPDYGDFASFDYWGQGTLVTVSSTSGQAGQHHHHHHGAYPYDVPDYAS
notes: as for B1
B3: ET200-110 (scFv)
scFv: QSVLTQPPSASGTPGQRVTISCSGSSSNIGTNGVNWFQQFPGTAPKLLIYTNDQRPSGVPDRFSGSKSGTSASLAISGLQSADEADYYCAVWDHSLNGPVFGGGTKLTVLGSRGGGGSGGGGSGGGGSLEMAQVQLVQSGAEVKKPGSSVKVSCKASGGTFSSYAISWVRQAPGQGLEWMGGIIPIFGTANYAQKFQGRVTITADESTSTAYMELSSLRSEDTAVYYCARGAGFDAFDIWGQGTMVTVSSTSGQAGQHHHHHHGAYPYDVPDYAS
notes: as for B1
B4: ET200-108 (scFv)
scFv: QSVLTQPPSVSAPPGQKVTISCSGSSSNIGNNYVSWYQQFPGTAPKLLIYDNNKRPSGISDRFSGSKSGTSATLGIAGLQTGDEADYYCGTWDTSLSGFYVFGSGTKVTVLGSRGGGGSGGGGSGGGGSLEMAEVQLVQSGAEVKKPGASVKVSCKASGYTFTSYTISWVRQAPGQGLEWMGWISTYNGLTNYAQNLQGRVTMTTDTFTTTAYMELRSLRSDDTAVYYCVREGSPDYGDFASFDYWGQGTLVTVSSTSGQAGQHHHHHHGAYPYDVPDYAS
notes: as for B1
B5: ET200-008 (scFv)
scFv: QSALTQPASVSGSPGQSITISCTGTSSDVGGYNYVSWYQQHPGKAPKLMIYDVSNRPSGVSNRFSGSKSGNTASLTISGLQAEDEADYYCSSYTSSSTSKVFGGGTKLTVLGSRGGGGSGGGGSGGGGSLEMAEVQLVESGGGVVRPGGSLRLSCAASGFTFGDYGMSWVRQAPGKGLEWVSGINWNGGSTGYADSVKGRFTISRDNAKNSLYLQMNSLRAEDTAVYYCARSKYNFHVYYDYWGQGTLVTVSSTSGQAGQHHHHHHGAYPYDVPDYAS
notes: as for B1
B6: ET200-115 (scFv)
scFv: QSVLTQPPSVSGAPGQRVTISCTGSSSNIGARYDVHWYQQLPGTAPRLLISANYDRPSGVPDRFSGSKSGTSASLAITGLQAEDEADYYCQSYDSSVSAWVFGGGTKVTVLGSRGGGGSGGGGSGGGGSLEMAEVQLVQSGAEVKEPGASVRISCQASGYNFISYYMHWVRQAPGQGLEWMGTINPGSGETDYSQKLQGRVTMTRDPSTGTFDMGLSSLTSGDTAVYYCATGLIRGASDAFNIWGRGTMVTVSSTSGQAGQHHHHHHGAYPYDVPDYAS
notes: as for B1
B7: ET200-113 (scFv)
scFv: QSVVTQPPSVSAAPGQKVTISCSGSSSNIGNNYVSWYQQLPGTAPKLLIYDNNKRPSGIPDRFSGSKSGTSATLGITGLQTGDEADYYCGTWDSSLSAAYVFGTGTKVTVLGSRGGGGSGGGGSGGGGSLEMAQVQLVQSGAEVKKPGASVKVSCKASGYSFTSYTISWVRQAPGQGLEWMGWVSTYNGLRNYAQNLQGRVTMTTDTLTTTAYMELRSLRSDDTAVYYCVREGSPDYGDFAAFDYWGQGTLVTVSSTSGQAGQHHHHHHGAYPYDVPDYAS
notes: as for B1
B8: ET200-116 (scFv)
scFv: QPVLTQPPSVSVSPGQTAAIPCSGDKLGDKFASWYQQKPGQSPVLVIYQDTKRPSGIPERFSGSNSGNTATLTISGTQAMDEADYYCQTWASGIVVFGGGTKLTVLGSRGGGGSGGGGSGGGGSLEMAQVQLQQSGPGLVKPSQTLSLTCAISGDSVSSNSAAWNWIRQSPSRGLEWLGRTYYRSKWYNDYAVSVKSRITINPDTSKNQFSLQLNSVTPEDTAVYYCARERSGWKGFDYWGQGTLVTVSSTSGQAGQHHHHHHGAYPYDVPDYAS
notes: as for B1
B9: ET200-109 (scFv)
scFv: LPVLTQPPSASATPGQRVTISCSGTTSNIGSNTVHWYQQLPGTAPKLLIYNNNQRPSGVPDRFSGSKSGTSASLAISGLRSEDEATYSCATWDDSLSGVVFGGGTKLTVLGSRGGGGSGGGGSGGGGSLEMAEVQLVQSGAEVKKPGSSVKVSCKASGGTFSSYAISWVRQAPGQGLEWMGGIIPIFGTANYAQKFQGRVTITADESTSTAYMELSSLRSEDTAVYYCARDPAYGDYEYDAFDIWGQGTMVTVSSTSGQAGQHHHHHHGAYPYDVPDYAS
notes: as for B1
B10: ET200-007 (scFv)
scFv: SYVLTQPLSVSVAPGKTARITCGGNNIGSKTVHWYQQKPGQAPVLVIYYDSDRPSGIPERFSGSNSGNTATLTISRVEAGDEADYYCQVWDSSSDHRVFGGGTKLTVLGSRGGGGSGGGGSGGGGSLEMAQVQLQESGPGLVKPSETLSLTCNVSGYSISSGYFWGWIRQPPGKGLEWIGSIYHSRSTYYNPSLKSRVTISVDTSKNQFSLKLNSVTAADTAVYYCARGYGYFDYWGQGTLVTVSSTSGQAGQHHHHHHGAYPYDVPDYAS
notes: as for B1
B11: ET200-118 (scFv)
scFv: QAVLTQPASVSGSPGQSITISCTGTSSDVGGYNYVSWYQQHPGKAPKLMIYEVSNRPSGVSNRFSGSKSGNTASLTISGLQAEDEADYYCSSYTSSSTPYVFGAGTKVTVLGSRGGGGSGGGGSGGGGSLEMAEVQLVESGGGLVQPGRSLRLSCAASGFTFDDYAMHWVRQAPGKGLEWVSGISWNSGSIGYADSVKGRFTISRDNAKNSLYLQMNSLRAEDTALYYCAKARWTAVASDHHFDYWGQGTLVTVSSTSGQAGQHHHHHHGAYPYDVPDYAS
notes: as for B1
B12: ET200-112 (scFv)
scFv: QAVLTQPPSASGTPGQRVTISCSGSSSNIGSNTVNWYQQLPGTAPKLLMYSNDQRPSGVPDRFSGSKSGTSASLAISGLQSEDEADYYCAAWDDSLNGYVFAAGTQLTVLSSRGGGGSGGGGSGGGGSLEMAQVQLQQWGAGLLKPSETLSLTCAVYGGSFSGYYWSWIRQPPGKGLEWIGEINHSGSTNYNPSLKSRVTISVDTSKNQFSLKLSSVTAADTAVYYCAREGLDAFDIWGQGTMVTVSSTSGQAGQHHHHHHGAYPYDVPDYAS
notes: as for B1
B13: ET200-106 (scFv)
scFv: SYELTQPPAASGTPGQRVTISCSGGVSNIGSGALNWYQQLPGTAPKLLIYSYNQRPSGVSDRFSGSRSATSASLAISGLQSEDEADYYCATWDDSVNGWVFGGGTKLTVLGSRGGGGSGGGGSGGGGSLEMAEVQLVESGAEVKKPGDSVKVSCKPSGYNFLNYGINWVRQAPGQGLEWMGWISTYTGNTNYAQKLQGRVTFTTDTSTSTAYMEMRSLRSDDTAVYYCARQQGGGWYDVWGQGTLVTVSSTSGQAGQHHHHHHGAYPYDVPDYAS
notes: as for B1

The first assay deals with T1, Fc Receptor-like 5 (FcRL5), full …. Kind of assay: phage clone screening on cells. The method, boiled down: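 scFv phage clones were incubated with live 3T3 cells overexpressing full-length FcRL5, then detected with mouse anti-M13 mAb and PE-anti-mouse Ig by flow cytometry. 3T3 cells expressing FcRL1, 2, 3, 4 or 6 served as negative-control targets.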
For the molecule B1, the binding result is recorded as “binds”.

In the case of B2, the binding result is reported as “binds”.

With B3, the binding result is reported as “binds”.

B4: the binding result is “binds”.

With B5, the binding result is “binds”.

For the molecule B6, the binding result is recorded as “binds”.

B7: the binding result is “binds”.

B8: the binding result was “binds”.

Regarding B9, the binding result is reported as “binds”.

As for B10, the binding result is given as “binds”.

In the case of B11, the binding result is recorded as “binds”.

As to B12, the binding result was “binds”.

Take B13: the binding result was “binds”.

A further assay deals with T2, FcRL1, overexpressed on 3T3 cells. Kind of assay: phage clone on 3T3-FcRL1 cells.
As for B1, the binding result is “no binding”.

As to B2, the binding result is “no binding”.

For B3, the binding result is “no binding”.

Regarding B4, the binding result is on record as “no binding”.

Turning to B5, the binding result was “no binding”.

B6: the binding result was “no binding”.

B7: the binding result is given as “no binding”.

Consider B8, for which the binding result is “no binding”.

As for B9, the binding result is “no binding”.

As for B10, the binding result was “no binding”.

As to B11, the binding result is “no binding”.

Take B12: the binding result is on record as “no binding”.

In the case of B13, the binding result is given as “no binding”.

Values taken from patent publication US20210388081A1 (Memorial Sloan Kettering, published 2021).
